# Test results from patent US20110165066A1 (AbbVie / Abbott, published 2011).
# T1: mouse IL-13 (mouse, UniProt P20109 26-131, limits assumed)
# T1 construct: also called mIL-13; murine IL-13
# T1 sequence (looked up): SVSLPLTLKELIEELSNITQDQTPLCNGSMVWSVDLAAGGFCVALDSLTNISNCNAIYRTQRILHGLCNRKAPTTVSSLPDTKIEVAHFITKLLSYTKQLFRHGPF
# Experiments:
# human IL-13 wild type [1] = molecular target: T2, human IL-13 wild type (human, UniProt P35225 35-146); experiment: cell-based or functional assay
# [2] = molecular target: T3, human IL-13 variant (R130Q) (human, UniProt P35225 35-146); experiment: cell-based or functional assay
# cynomolgus IL-13 [3] = molecular target: T4, cynomolgus IL-13 (cynomolgus, UniProt Q0PW92 21-132); experiment: cell-based or functional assay
# [4] = molecular target: T3, human IL-13 variant (R130Q); experiment: not stated in the sentence (Biacore elsewhere)
# cynomolgus IL-13 [5] = molecular target: T4, cynomolgus IL-13; experiment: not stated in the sentence (Biacore elsewhere)
# [6] = molecular target: T3, human IL-13 variant (R130Q); experiment: SPR (Biacore), mAb captured, IL-13 as analyte
# Experimental: (§1) The BIACORE assay (Biacore, Inc, Piscataway, N.J.) determines the affinity of antibodies with kinetic measurements of on-, off-rate constants. […] All chemicals were obtained from Biacore® AB (Uppsala, Sweden) or otherwise from a different source as described in the text. Approximately 5000 RU of goat anti-mouse IgG, (Fcγ), fragment specific polyclonal antibody (Pierce Biotechnology Inc, Rockford, Ill.) diluted in 10 mM sodium acetate (pH 4.5) was directly immobilized across a CM5 research grade biosensor chip using a standard amine coupling kit according to manufacturer's instructions and procedures at 25 μg/ml. Unreacted moieties on the biosensor surface were blocked with ethanolamine. Modified carboxymethyl dextran surface in flowcell 2 and 4 was used as a reaction surface. Unmodified carboxymethyl dextran without goat anti-mouse IgG in flow cell 1 and 3 was used as the reference surface. For kinetic analysis, rate equations derived from the 1:1 Langmuir binding model were fitted simultaneously to association and dissociation phases of all eight injections (using global fit analysis) with the use of Biaevaluation 4.0.1 software. Purified antibodies were diluted in HEPES-buffered saline for capture across goat anti-mouse IgG specific reaction surfaces. Mouse antibodies to be captured as a ligand (25 μg/ml) were injected over reaction matrices at a flow rate of 5 μl/min. The association and dissociation rate constants, kₒₙ (unit M⁻¹s⁻¹) and koff (unit s⁻¹) were determined under a continuous flow rate of 25 μl/min Rate constants were derived by making kinetic binding measurements at ten different antigen concentrations ranging from 10-200 nM. […] Binding is recorded as a function of time and kinetic rate constants are calculated.
# mouse IL-13 [7] = molecular target: T1, mouse IL-13; experiment: indirect ELISA, captured mAb, biotinylated mouse IL-13
# Experimental: Murine anti-human IL-13 mAbs were prepared at various concentrations ranging from 0.1 to 100 ng/ml in PBS containing 0.1% BSA; 50 ul of each antibody dilution was added to the coated ELISA plate and incubated for 1 hour at room temperature. Wells were washed 3 times with PBS containing 0.05% Tween-20. […] Wells were washed 3 times with PBS containing 0.05% Tween-20. Streptavidin HRP (Pierce #21126, Rockland, Ill.) was diluted 1:20000 in PBS containing 0.1% BSA; […] was added and the plates incubated for 1 hour at room temperature. Plates were washed 3 times with PBS containing 0.05% Tween-20. Fifty microliters of TMB solution (Sigma # T0440, St. Louis, Mo.) was added to each well and incubated for 10 minutes at room temperature. The reaction was stopped by addition of 1N sulphuric acid. Plates were read spectrophotmetrically at a wavelength of 450 nm.
# human IL-13 wild type [8] = molecular target: T2, human IL-13 wild type; experiment: SPR (Biacore), mAb captured, IL-13 as analyte; native recombinant human wild-type IL-13, Biacore
# Experimental: as §1
# human IL-13 wild type [9] = molecular target: T2, human IL-13 wild type; experiment: blocking of IL-13 binding to IL-13Rα2: cell surface RBA (125I-IL-13, transfected COS cells) and receptor binding ELISA (IL-13Rα2/Fc); native IL-13 in solution; blocking of binding to IL-13Rα2, cell surface RBA and RB ELISA; lower end of range
# Experimental: (§2) The plates were washed again 5 times with 300 ul 0.1% PBST, followed by addition of TMB substrate reagent (100 ul/well, Pharmingen); developed for 5 min, and stopped by adding 50 ul of 2M H2SO4 (VWR). ODs at 450 nm were determined by spectrophotometry.
# (§3) Additionally, the receptor blocking properties of the mAbs were also assessed by receptor binding assay using IL-13Rα2-transfected COS cells. Recombinant human IL-13 was labeled with ¹²⁵I (Amersham, Arlington Heights, Ill.), using IODO-GEN reagent (Pierce, Rockford, Ill.) as previously described (Obiri N I et al., (1995) J Biol Chem. 270:8797-8804). […] For binding experiments, COS cells were transiently transfected with human IL-13Rα2 by Lipofectamine 2000 (Invitrogen), and incubated for 48 hr. Transfected COS cells (5×10^5 cells in 100 μL binding buffer: RPMI 1640 containing 0.2% human serum albumin and 10 mmol HEPES) were incubated with 1.0 nM ¹²⁵I-IL-13 with or without 1 uM unlabeled IL-13 at 4° C. for 2 hours. Cell-bound ¹²⁵I-IL-13 was separated from unbound ¹²⁵I-IL-13 by centrifugation through a phthalate oil gradient, and radioactivity was determined with a gamma counter (Wallac, Gaithersburg, Md.).
# human IL-13 wild type [10] = molecular target: T2, human IL-13 wild type; experiment: blocking of IL-13 binding to IL-13Rα2: cell surface RBA (125I-IL-13, transfected COS cells) and receptor binding ELISA (IL-13Rα2/Fc); native IL-13 in solution; blocking of binding to IL-13Rα2, cell surface RBA and RB ELISA; upper end of range
# Experimental: as §2, §3
# human IL-13 wild type [11] = molecular target: T2, human IL-13 wild type; experiment: SPR (Biacore)
# Experimental: as §1
# cynomolgus IL-13 [12] = molecular target: T4, cynomolgus IL-13; experiment: SPR (Biacore)
# Experimental: as §1
# rhesus IL-13 [13] = molecular target: T5, rhesus IL-13 (rhesus, UniProt Q864V6 21-132, limits assumed); experiment: SPR (Biacore)
# Experimental: as §1
# human IL-13 wild type [14] = molecular target: T2, human IL-13 wild type; experiment: cell-based or functional assay; remark: listed apart in the source
# cynomolgus IL-13 [15] = molecular target: T4, cynomolgus IL-13; experiment: cell-based or functional assay; remark: listed apart in the source
# rhesus IL-13 [16] = molecular target: T5, rhesus IL-13; experiment: cell-based or functional assay
# mouse IL-13 [17] = molecular target: T1, mouse IL-13; experiment: cell-based or functional assay
# mouse IL-13 [18] = molecular target: T1, mouse IL-13; experiment: BIACORE against recombinant mouse IL-13
# T2 sequence (P35225 other isoform, or with tags, fused parts or gaps limits assumed): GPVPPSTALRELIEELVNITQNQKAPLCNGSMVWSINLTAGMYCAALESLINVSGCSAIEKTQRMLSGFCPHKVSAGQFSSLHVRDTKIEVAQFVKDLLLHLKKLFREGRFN
# T5 sequence (Q864V6 21-132 limits assumed): as the sequence (P35225 other isoform, or with tags, fused parts or gaps limits assumed) above, with G1S, P5R, R10K, M42V, S67N, H83R, L100V counted along it
# T3 sequence (P35225 35-146 limits assumed, stated change not applied): as the sequence (P35225 other isoform, or with tags, fused parts or gaps limits assumed) above, with R110Q counted along it
# T4 sequence (Q0PW92 entry or part of it): as the sequence (P35225 other isoform, or with tags, fused parts or gaps limits assumed) above, with G1S, R10K, M42V, S67N, H83R, L100V, R110Q counted along it
Binder,Kd (human IL-13 wild type [11]) [nM],Kd (cynomolgus IL-13 [12]) [nM],Kd (rhesus IL-13 [13]) [nM],"Potency (IC50), A-549 bioassay (human IL-13 wild type [14]) [nM]","Potency (IC50), A-549 bioassay (cynomolgus IL-13 [15]) [nM]","Potency (IC50), A-549 bioassay (rhesus IL-13 [16]) [nM]","IC50, A-549 bioassay against recombinant mouse IL-13 (mouse IL-13 [17]) [nM]",Kd (mouse IL-13 [18]) [nM],other results
"13C5 (antibody, V domains shown, also called murine 13C5) VH: QVTLKESGPGILQPSQTLSLTCSFSGFSLSTSDMGVDWIRQPSGKGLEWLAHIWWDDVKRYNPALKSRLTISKDTSSSQVFLMLASVDTADTATYYCARTVSSGYIYYAMDYWGQGTSVTVSS VL: DIQMTQTASSLSASLGDRVTISCRASQDIRNYLNWYQRKPDGTVKLLIFYTSKLHSGVPSRFSGSGSGTDYSLTIRNLEQEDIATYFCQQGNTLPLTFGGGTKLEIKR",–,–,–,–,–,–,–,–,"Average IC50, IL-13-induced TARC production by A-549 cells (human IL-13 wild type [1]): 0.19 nM; Average IC50, IL-13-induced TARC production by A-549 cells [2]: 0.17 nM; Average IC50, IL-13-induced TARC production by A-549 cells (cynomolgus IL-13 [3]): 5 nM; Kd [4]: 0.05 nM; Kd (cynomolgus IL-13 [5]): 1.8 nM; Kd [6]: 0.0759 nM; koff [6]: 4.35e-05 s⁻¹; kon [6]: 574000 M⁻¹ s⁻¹; binding result (mouse IL-13 [7]): no binding (tested: 0.1 to 100 ng/ml); Kd (human IL-13 wild type [8]): 0.0745 nM; koff (human IL-13 wild type [8]): 9.31e-05 s⁻¹; kon (human IL-13 wild type [8]): 1.25e+06 M⁻¹ s⁻¹; IC50 (human IL-13 wild type [9]): 1 to 3 nM; IC50 (human IL-13 wild type [10]): 1 to 3 nM"
"13C5.5L2E (antibody, V domains shown, constant regions not restated for this variant) VH: EVTLRESGPGLVKPTQTLTLTCTLYGFSLSTSDMGVDWIRQPPGKGLEWLAHIWWDDVKRYNPALKSRLTISKDTSKNQVVLKLTSVDPVDTATYYCARTVSSGYIYYAMDYWGQGTLVTVSS VL: DIQMTQSPSSLSASVGDRVTISCRASQDIRNYLNWYQQKPGKAPKLLIFYTSMKPRGVPSRFSGSGSGTDYTLTISSLQPEDIATYYCQQGNTLPLTFGGGTKVEIK",0.12,0.52,0.29,0.18,1.2,0.4,–,–,–
"13C5.5L3F (antibody, V domains shown, The heavy chain row is printed 'VH 13C5.5L2F') VH: EVTLRESGPGLVKPTQTLTLTCTLYGFSLSTSDMGVDWIRQPPGKGLEWLAHIWWDDVKRYNPALKSRLTISKDTSKNQVVLKLTSVDPVDTATYYCARTVSSGYIYYAMDYWGQGTLVTVSS VL: DIQMTQSPSSLSASVGDRVTISCRASQDIRNYLNWYQQKPGKAPKLLIFYTSKLHSGVPSRFSGSGSGTDYTLTISSLQPEDIATYYCQQGLTPPLTFGGGTKVEIK",0.24,0.19,0.11,0.15,0.46,0.14,–,–,–

# The next lines start with results.
Kd (human IL-13 wild type [11]) [nM],Kd (cynomolgus IL-13 [12]) [nM],Kd (rhesus IL-13 [13]) [nM],"Potency (IC50), A-549 bioassay (human IL-13 wild type [14]) [nM]","Potency (IC50), A-549 bioassay (cynomolgus IL-13 [15]) [nM]","Potency (IC50), A-549 bioassay (rhesus IL-13 [16]) [nM]","IC50, A-549 bioassay against recombinant mouse IL-13 (mouse IL-13 [17]) [nM]",Kd (mouse IL-13 [18]) [nM],Binder,other results
–,–,–,–,–,–,0.0491,0.105,"48D3 (antibody, V domains shown) VH: EVQLVESGGDLVQPGRSLKLSCAASGFTFSDYYMAWVRQAPTKGLEWVASISNDGISTYYRDSVKGRFTISREKAKSSLYLQMDSLRSEDTATYYCTTWNWEFGFFDYWGQGVMVTVSA VL: DIVLTQSPALAVSLGQRATISCRASQSVTISRYNRMHWYQQRPGQQPKLLIYRSSYLASGIPARFSGSGSGTDFTLTIYPVQADDIATYYCQQNRESPWTFGGGTKLELNR",–
–,–,–,–,–,–,0.343,0.145,"51D9 (antibody, V domains shown) VH: QIQLVQSGPELKKPGESVKISCKASGYTFTDYAMHWVKQAPGKGLKWMAWINTYTGKPTYADDFKGRFVFSLEASASTATLQISNLKNEDTATYFCARAGRTEGTHYYAMDAWGQGTSVTVSS VL: DIVLTQSPVLAVSLGQRATISCRASQSVSISSSDLMHWYQQRPGHQPKLLIYRTSNLVSGIPARFSGSGSGTDFTLTIDPVQADDIAAYYCQQGRESPWTFGGGTKLELKR",–
